This data set can be described thus: label from the status in PepcDB records.
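Further: failed if final PepcDB status was selected cloned or expressed and not failed if soluble or beyond.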

For the sequence “MLSIIEQIKQGQLWDFHGGIHPEENKTISNQAAIQQAGIPSQLVLPLKQHIGGKGDILVSVGDVVLKGQPLTQGNIAMCVPVHAPTSGRITAIEPRTVAHPSGLTDLCIVIESDGEDRWVEDRTPIDDFSSVDPIDLIERIRQSGISGMGGAGFPTSRKIQSGIGKAEMLIINAAECEPYITADDRLMREHAEEIIDGIKILQHILTPKVCIIAIEDNKPEAVKALNQAVTDHDNIIIRVIPTKYPSGGSRQLTKIITGQEVPANGRSTDIGVIVQNVGTVFAIKRAICDAEPLIERIVTLTGNSMSTPGNLWVRLGTCIDYLMELVGYKADKKHPRIIMGGSLMGFTLPHQQVPITKITNCIITPDKKELPLYNHEMACIRCSSCADACPTSLLPQQLYWYSKSEDYDKCNEYNLNDCIECGACAYVCPSEIPLVQYYRQAKSEIYSRKQDALAAERAKLRFEEKNARLERDKLERENKFKQAAENRRKEMKTENKGGDDAIAAAIARVKAQKAAQESGVAAPKPAVAAAIARAKAKQAEAAKSETSVPDNSEMAKLREERKQQARERKAKLAEETTATDSDKSEKKDAVAAAIARAKARKAAQAEEKTETPVASEEKNQNTEGSADPKKAAVAAAIARAKARKAAQAEEKTETPVTSEEKNQNTEGSADPKKAAVAAAIARAKARKAAQAEEKTETPVASEEKNQNTEGSADPKKAAVAAAIARAKARKAAQAEEKTETPVTSEEKNQNTEGSADPKKAAVAAAIARAKARKATQAEEKTETPVTSEEKNQNTEESADPKKAAVAAAIARAKARKAAQENNKKEE”, the protein production result is reported as “failed”.
The value for “MLSKNNFNEKLMQMNNQKAHFSIRKLTIGAASVLIGITFMGINGQTVNADEMTGNTQPEAMQVSTDKSTDATTTQQNDSDSSAQKNAAQTVEVPQNSKQDNTGETSQSTTDKKDTQVQKTESSETKADTAQSQVPPAANQTQKSADQNVENTQSPVASNTTQPKTQNDSKYNVADWGGSLNDETHEYTLNKYNGSDKENIYIPNTEDFIKAGKITDIDKVFITKDLIQNITKNGATSIVIDDQGSEDKNKVYAKGDWSNAFAGSTKLKSVDLSHLDTSQVTSMAGAFNGDTGLNDANLSGWNIQNMTNLSSLFYGANNLYNVDMSGWNFINNPNTNSMFSYADYNLKSVNLKNAKNVTDDILRIYARAIKNSNATTADLSDINLSPNVTSLHGLFSNMPDLKNVNLSGLDISHITDMGGMFSGDSNLESLDLSGLDLSKVTNTNNMFDWVGGKIKSVNITNTKSIPRSILDIYLKALSNTGTTTVDLSGINLSPNVTSLHGLFANMPNLGSANLSGLDISHITDMGGMFFNDTSLKSVNLSGLNLEKVKDLSTMFYGANNLENVDFSNTKFAPDANTNVMFAFADTKLQSVNINGTKNITREVLDAVIRAAKNSNATTLDLSGVSFSPSITSFNNLFSNMPNIESIDLTGWDTSHITDMSYMFFNDPKLKIIKGLEDFNTSNVTNMAYMFAAFNNPTTDNYDPKGLESLGHLTKLDLSNWDTSNVTNMLYMFAGQTNLTSLGDLSKWNTSKVTNMAYMFYDLKNIDDGKLDLTGWDTSNVTDMSYMFFNMFLQKDLSFVNDWNTGKVTDMSYMFANDKNLEKLDLSKWDVSSVGLKHTEQNYSLAMMFAGDTSLTTVGDISHWNTKNVHDTRQMFYNTPKLTNIDLSGWNTGKLQIAEGMFNSSGAKQINLDNWDLSNIKRITPAGYVEGKAGVGVLRGVENMFKNLTNPAVISMNKVILPDARNAFEINDFEGNKAIVVIANGQNGEALQDLLKINNQTWTDKSGNNVTGRQNSDYVTYVRADDNSNQIGQRGLNFIFTNLDDLHQYFNQVTNADNVKNDIGELSHDWDAQQDTDNNIVKITLRLSPASSYDPYSENIHAEKDGNILADLMTSKYQLHIVAPTNTTETKKPTRTIIIENPDGTTSTKEQTVEFKREVTKHVDGTEEATSWTPTSGEWTKFDVPQIAGYDSYVDGTQSKSVASEPVNKDTENVTVVITYKSNAVNPEPIIPDPVKPEVDPDKKDPQEPKTDPVTPTPDEPENPKPEKKPSNPDKRKDDNSKVVKPHGENKAAKKNHSSVEHKKTGTHTIKLSHRVAPKGTQATNGSKKSTSTVNKAADNNKNTLPQTGEKKSNAGLIGLALIALASLGLIDRKRRD” was “failed”; that for “MLSNRFNRWTVAAIALMGTAIATVPGRVLAQTPDHPSDTAAQFPTRNDLKSLTTSGSYLAARHASVERDATSAAAFYRSALRTDPKNNELLDRAFISSVADGDIDEAVKLAERVLTIDKTNRVARLVVGVHDLKMKKYATAQTNINQSIRGPITDLVATLLSGWAAYGAGDSKGAVATIDKLAGPEWYPLFKDLHAGMILELAGKEKDAGTRFERAYKLDDSMLRVTEAYARWLSRNKDAAAATTVYQAFDKKLARHPLIVEGLRDTKAGKKLPPLVDSAQAGAAEALYGIGATLTRRGGEDLALVYLQLSLYLQPTHPLALLSLADLYESVKRPQMAIKVYERVPSTSPLKRNAQIQLAIDLDSADRTDEAIKILKGVTSEDSKDLEAIMALGNIERGRKKFGDCGATYSQGVDVLPAGNDKANSVWYYYRGICEERSKQWAKAEADMKKALELQPDQPHVLNYLGYSWIDQGVNLDEGMKMIKRAVEQRPDDGYIVDSLGWAYYRIGNYEEAVKNLERAIDLKPEDPTINDHLGDAYWRVGRTLEAKFQWSHARDLKPEPDELPKIEAKIANGLTEDNSNSSAAQAEKKKDDGKGG” was “failed”.
For “MLTDPFFYLVAIPAVILLGLTKGGFAGIGVVAVPMMTLAVSPVMAASIILPILLVQDVVSVWSFRKTWDKAILVLMLPAAAVGIFLGWALAALVEEAAVELAVGAISVVFALQRLWAEHALRAADSIEAGPARPWLGVLCGATAGFTSQIAHAGGPPFQIYVLPRGLPRDVFIGTSAIFFGVVNWMKVPAYLALGQLTPQALATAGVLLPLAIASTWAGVWLVRRVPAEGFYKVIYVLLVLVGGKLMFDGARGLLT” the value was “failed”.
The value for “MLTFAPLNFLAIGVGATLGAWLRWVPGLRLNGAGWPWGTLTANLVGGYLIGVMVALIASHPEWPAWIRLAAVTGFLGGLTTFSTFSAETVDMLERGVYATAAAYAGASLAGSLAMTGLATVRLLLR” was “failed”; that for “MLTFFIGDLLPIIVIMLLGYFSGRRETFSEDQARAFNKLVLNYALPAALFVSITRANREMIFADTRLTLVSLVVIVGCFFFSWFGCYKFFKRTHAEAAVCALIAGSPTIGFLGFAVLDPIYGDSVSTGLVVAIISIIVNAITIPIGLYLLNPSSGADGKKNSNLSALISAAKEPVVWAPVLATILVLVGVKIPAAWDPTFNLIAKANSGVAVFAAGLTLAAHKFEFSAEIAYNTFLKLILMPLALLLVGMACHLNSEHLQMMVLAGALPPAFSGIIIASRFNVYTRTGTASLAVSVLGFVVTAPLWIYVSRLVS” was “failed”.
Turning to “MLTGLKIAVIGGDARQLEIIRKLTEQQADIYLVGFDQLDHGFTGAVKCNIDEIPFQQIDSIILPVSATTGEGVVSTVFSNEEVVLKQDHLDRTPAHCVIFSGISNAYLENIAAQAKRKLVKLFERDDIAIYNSIPTVEGTIMLAIQHTDYTIHGSQVAVLGLGRTGMTIARTFAALGANVKVGARSSAHLARITEMGLVPFHTDELKEHVKDIDICINTIPSMILNQTVLSSMTPKTLILDLASRPGGTDFKYAEKQGIKALLAPGLPGIVAPKTAGQILANVLSKLLAEIQAEEGK”, the protein production entry is recorded as “failed”.
The value for “MLTGNKPAVQRRFIGLLMLSVLVAGCSSNPLANFAPGYPPTIEPAQPAVSPPTSQDPAGAVRPLSGHPRAALFDNGTRQLVALRPGADSAAPASIMVFDDVHVAPRVIFLPGPAAALTSDDHGTAFLAARGGYFVADLSSGHTARVNVADAAHTDFTAIARRSDGKLVLGSADGAVYTLAKNPAVDPASGAATVASRTKIFARVDALVTQGNTTVVLDRGQTSVTTIGADGHAQQALRAGQGATTMAADPLGRVLIADTRGGQLLVYGVDPLILRQAYPVRQAPYGLAGSRELAWVSQTASNTVIGYDLTTGIPVEKVRYPTVQQPNSLAFDETSDTLYVVSGSGAGSRFIEHAAGTR” was “failed”.
The value for “MLTLIKRTVLAAGLIGTTLGAAAQPPRAYPLKDFFRNPERGYFRLADDGKTLGFMQPVSIDGQPPRMNIYVQALADGVPAGEPRKLTSETARDISNFFWKGDDTVLYQKDFGGDENFHVLAVNARTGQVADLTPYEGVRASIEDDLPDDPDHVLISHNRRDPQVFDVYRVNVRTGAAELVAQNPGNVVGWQTDHAGKVRAAITSDGLNTTLLYRDDEAAPFRPLITTDYRVSVSPAFFTFDDRKLYALSNRGRDKLALVVIDPATPDVEQPVFEPDEVDLDAAGYSRKRKVLTVASYQTDKPRHRFFDAETEALYARLARALPGYDFALQGWNRDEDTFIVAAYNDRTPGSRYLYDARRDSLHKLADINPAIPEADMAPVRPVSYQSRDGLTIHGYLTLPAGRAPRNLACIVNPHGGPWARDGWGYNPEVQFLANRGFCVLQMNFRGSTGYGRKFWEAGFGQWGLKMQDDITDGVQWLIDQGIADPRRIGIYGGSYGGYATLAGVAFTPDLYAAAVDYVGVSNLFTFMNTIPPYWKPLLAKMQDMVGDPVRDKARLEATSPALHVDRIKTPLFIAQGAKDPRVNKAESDQVVQALRQRGVEVEYMVKDNEGHGFHNDENKFEFYAAMEKFFTEHLKP” was “failed”; that for “MLTRYLAIAAIALALTGLGGCSVNPVTGEKQLSLISENQELALGAEQYTPTQQTQGGRFYIDPELSIYVRDVGQKLARVSDRPDLPYEFVVLNNSVPNAWALPGGKIAINRGLLVELEDEAQLASVLGHEIVHAAARHSVQRMQQGMLISAGVAGLGFALSDNEWAGLIMGGAALGAQLALAQYSQGDELESDAYGIRYMKEAGYDPQAAVELQQLFLKLSEGRQSGWLDGLFATHPPSAKRVQENQELVQNIGSGGYRGRDVYQRRIAKLKELQPAYDAHDEAMKLASEGKFEAALDQVNKAIKLEPREAMLFALRGRIYRGMEQPEKAKADFDKAVSLYPEMFQYQLYSGLNELELNNLGKAKTHLEKANQVVPTSIAYLRLGDIARQQGQRSEAVAYYSTAAEAGGDVGAEAQRKLAELSN” was “failed”.
As to “MLTVKQRETDCPMDLNTLISQYGYAALVIGSLAEGETVTLLGGVAAHQGLLKFPLVVLSVALGGMIGDQVLYLCGRRFGGKLLRRFSKHQDKIERAQKLIQRHPYLFVIGTRFMYGFRVIGPTLIGASQLPPKIFLPLNILGAFAWALIFTTIGYAGGQVIAPWLHNLDQHLKHWVWLILVVVLVVGVRWWLKRSGKKKPDHQA”, the protein production result is “failed”.
The value for “MLTYQVKQGDTLNSIAADFRISTAALLQANPSLQAGLTAGQSIVIPGLPDPYTIPYHIAVSIGAKTLTLSLNNRVMKTYPIAVGKILTQTPTGEFYIINRQRNPGGPFGAYWLSLSKQHYGIHGTNNPASIGKAVSKGCIRMHNKDVIELASIVPNGTRVTINR” was “not failed”; that for “MLVAAQQQGPPMPRPSHLMILALTAAALYIYALASDNTMLALMAKPIPVLALIAWLRSTPVSPYRTWISIGLGFSVLGDILLAIPADLFVFGLAAFLCAHLAYLRGYCGITLRPALPALIFSAITGIALLGVLASNGLGPLLIPVALYALAISAMLWRALACGGVAALGAGLFVFSDSLIGIDRFISPFAAAPYLIILAYWLGQWAIASSVGHRSTDKVLTQSGARRTESC” was “failed”.
For “MLVAPFASQLPFVEETLHSSYQALQWGKNIFAIAHKTLSARLLNTVFPTEERTQPLSPELQAWLKERYEALLQQDWQDAAAGFYPATLLFDAPWEEFLRFYPLLLLDLPQMWQRARSRQFQEFAHNVRLEDYPQYYRQNFHYQTDGYLSDTSANLYDIQVELLFGGTADAMRRRVIAPIAQQVVAHPPTPPLRILDVACGTGRTLKQLRYAFPGAVLFGLDLSPAYLRKANALLATQTGALPQLIQGNAESLPYVDSYFSAITCVFLFHELPAPVRQNVIHECARVLQPGGIFVICDSIQSLDSPEQRPMMENFANLFHEPFYRNYIEDDLNLRLEKAGLVVKEVQHHFMSKYWVAVKPSLEHHHHHH” the value was “failed”.
